Experiment [1] concerns the target human CD40-Fc protein (Cat #: CD0-H5253, ACRO Biosystems) (human, UniProt P25942 21-193). The experiment in a line: dual-binding ELISA: human CD40-Fc coated, binder titrated, detected with human CD47-his and anti-His-HRP, OD450. The procedure:
(§1) The binding activity of the recombinant fusion proteins to human CD40 and CD47 was also tested by dual-binding ELISA assay. Briefly, 100 μl/well human CD40-Fc proteins (Cat #: CD0-H5253, ACRO Biosystems) were coated on 96-well plates at 0.2 μg/mL in PBS and incubated overnight at 2-8° C. The next day, the plates were washed 3 times using wash buffer (PBS+0.05% v/v Tween-20, PBST), and then blocked with block buffer (PBS+1% w/v BSA) for 3 hours at 37° C. The plates were then washed 3 times using the wash buffer.
(§2) Serially diluted recombinant fusion proteins of the disclosure or controls (starting at 100 nM with a 6-fold serial dilution) in block buffer were added to the CD40-Fc bound plates, 100 μL per well, and incubated at 37° C. for 1 hour. The plates were washed 3 times using wash buffer, and then added and incubated for 1 hour at 37° C. with 100 μl/well 3 μg/mL human CD47-his protein (Cat #: CD7-H5227, ACRO Biosystems). The plates were washed again using wash buffer, added with 100 μl/well Anti-His tag Antibody (HRP) (1:2000 dilution in block buffer, Cat #: 105327-MM02T-H, Sino Biological) and incubated for 1 hour at 37° C. The plates were washed again using wash buffer. […] The absorbance was read using a microplate reader set to 450 nm, then the OD (450) values were plotted against the recombinant fusion protein or controls concentration. Data was analyzed using Graphpad Prism and EC₅₀ values were reported.

The target of experiment [2] is T1, recombinant human CD40-his protein (Cat #: CD0-H5228, Acro biosystems) (human, UniProt P25942 21-193).
T1 construct: Bought protein
Briefly: SPR (Biacore T200), sample on Protein A chip, antigen-his analyte, 1:1 fit. The text has this: (§3) The purified recombinant fusion proteins were characterized for their binding affinity and binding kinetics by Biacore T200 system (GE healthcare, Pittsburgh, PA, USA). The anti-CD40 antibody HuCD40-C1H1-V2 (having the heavy chain and the light chain of SEQ ID NOs: 19 and 20), Selicrelumab (an agonistic anti-CD40 antibody, Roche Inc., prepared in-house with heavy and light chains of SEQ ID NOs: 27 and 28), and SIRPα-Fc fusion proteins, including SIRPαV2D1M1-Fc (IgG2) (SEQ ID NO: 21, X1=I, X2=R, X3=T, X4=K, X5=F), SIRPαV2D1M2-Fc (IgG2) (SEQ ID NO: 21, X1=I, X2=R, X3=T, X4=R, X5=V), SIRPα-isoform2-Fc (SEQ ID NO: 25) were used as positive controls.
(§4) A Protein A chip (Cat #: 29-1275-56, GE healthcare) was used for affinity determination. The recombinant fusion proteins of the disclosure and the positive controls each at the concentration of 2 μg/ml were respectively flowed onto the chip at a flow rate of 10 μl/min. Then, serially diluted recombinant human CD40-his proteins (Cat #: CD0-H5228, Acro biosystems), human CD47-his proteins (Cat #: CD7-H5227, Acro biosystems), cynomolgus CD40-his proteins (Biosion in house made, SEQ ID NO: 29) or cynomolgus CD47-his proteins (Cat #: CD7-C52H1, Acro biosystems), 2-fold dilution in HBS-EP⁺ buffer (provided by Biacore) with a starting concentration of 200 nM, were flowed onto the chip at a flow rate of 30 μl/min. The association kinetics was followed for 2 minutes and the dissociation kinetics was followed for 10 minutes. The association and dissociation curves were fit to a 1:1 Langmuir binding model using the Biacore evaluation software.

Experiment [3] concerns the target T2, human CD47-his protein (Cat #: CD7-H5227, Acro biosystems) (human, UniProt Q08722 19-139).
T2 construct: Bought protein
Described as above.
Text: as §3, §4

For experiment [4], the target named is human CD40-Fc protein (prepared in-house) (human). Briefly: competitive ELISA: human CD40-Fc coated, blocked ligand biotin-labeled human CD40L-his, OD(450-630). The procedure:
The ability of the recombinant fusion proteins of the disclosure to block CD40-CD40L binding was measured in a competitive ELISA assay. Briefly, 100 μl/well human CD40-Fc proteins (prepared in-house with amino acid sequence of SEQ ID NO: 22) were coated on 96-well micro plates at 2 μg/mL in coating buffer (carbonate/bicarbonate buffer) and incubated overnight at 4° C. The next day, the plates were washed once with wash buffer (PBS+0.05% v/v Tween-20, PBST), and then blocked with 5% w/v non-fatty milk in PBST for 2 hours at 37° C. The plates were then washed 4 times using the wash buffer.
Serially diluted recombinant fusion proteins of the disclosure or controls (starting at 10 µg/mL with a 5-fold serial dilution) in PBST with 2.5% w/v non-fatty milk were added to the CD40-Fc bound plates, 100 μl per well, and incubated at 37° C. for 40 minutes. The plates were washed 4 times using wash buffer, and then added and incubated for 40 minutes at 37° C. with 100 μl/well 95 ng/mL biotin-labeled human CD40L-his protein (Cat #: 10239-H08E, Sino biological). The plates were washed again using wash buffer, added with 100 μl/well streptavidin conjugated HRP (1:10000 dilution in PBST buffer, Cat #: 016-030-084, Jackson ImmunoResearch) and incubated for 40 minutes at 37° C. The plates were washed again using wash buffer. […] The absorbance was read on a microplate reader using the dual wavelength mode with 450 nm for TMB and 630 nm as the reference wavelength, then the OD (450-630) values were plotted against the recombinant fusion protein or controls concentration. Data was analyzed using Graphpad Prism and IC₅₀ values were reported.

Experiment [5] has as its target T3, full length human CD40 (uniprot #P25942-1) on 293T-CD40 cells (human, UniProt P25942 21-277).
T3 construct: whole, on cells
Briefly: FACS on 293T-CD40 cells, detection with goat anti-human IgG (Fab)-PE, MFI. The procedure: Following an incubation of 40 minutes at 4° C. in dark, cells were washed three times and resuspended in FACS buffer. Fluorescence was measured using a Becton Dickinson FACS Canto II-HTS equipment and plotted against the recombinant fusion protein or controls concentration. Data was analyzed using Graphpad Prism and EC₅₀ values were reported.

Experiment [6] deals with T4, biotin-labeled human CD47-Fc (Biosion in house made) (human, biotin-labeled (sites not given)).
T4 construct: also called Human CD47-Fc protein
The experiment in a line: competitive ELISA: binder premixed with biotin-labeled human CD47-Fc, blocked partner coated human CD172a-Fc, OD(450-630). The procedure:
The ability of the recombinant fusion proteins of the disclosure to block CD47-CD172a binding was measured in a competitive ELISA assay. Briefly, 100 μl/well human CD172a-Fc proteins (prepared in-house with amino acid sequence of SEQ ID NO: 24) were coated on 96-well micro plates at 2 μg/mL in coating buffer (carbonate/bicarbonate buffer) and incubated overnight at 4° C. The next day, the plates were washed once with wash buffer (PBS+0.05% v/v Tween-20, PBST), and then blocked with 5% w/v non-fatty milk in PBST for 2 hours at 37° C. The plates were then washed 4 times using wash buffer.
Serially diluted recombinant fusion proteins of the disclosure or controls (starting at 100 nM with a 5-fold serial dilution) were mixed with 20 ng/ml biotin-labeled human CD47-Fc (Biosion in house made, SEQ ID NO: 23) in PBST with 2.5% w/v non-fatty milk. The mixtures were incubated at 37° C. for 40 minutes, and respectively added to the CD172a-Fc bound plates, 100 μl per well. The plates were incubated at 37° C. for 40 minutes, washed 4 times using wash buffer, added with 100 μl/well streptavidin conjugated HRP (1:10000 dilution in PBST buffer, Cat #: 016-030-084, Jackson ImmunoResearch), incubated for 40 minutes at 37° C., and washed again using wash buffer. […] The plates were read on a microplate reader using the dual wavelength mode with 450 nm for TMB and 630 nm as the reference wavelength, and the OD (450-630) values were plotted against the recombinant fusion protein or controls concentration. Data was analyzed using Graphpad Prism and IC₅₀ values were reported. Wild-type SIRPαV2D1-Fc (IgG2) (SEQ ID NO: 21, X1=V, X2=K, X3=S, X4=K, X5=F) was used as a positive control.

The target of experiment [7] is T2, human CD47-his protein (Cat #: …). Briefly: dual-binding ELISA: human CD40-Fc coated, binder titrated, detected with human CD47-his and anti-His-HRP, OD450. The protocol: as §1, §2

Consider two molecules from patent publication US20250109212A1 (BIOSION, published 2025).

B1: BSI038×S-002 (bispecific antibody, human IgG2, kappa)
heavy: not shown
light: EIVLTQSPATLSLSPGERATLSCRASQTINNNLHWYQQKPGQAPRLLIKYASQSISGIPARFSGSGSGTDFTLTISSLEPEDFAVYFCQQFSSWPLTFGGGTKVEIKRTVAAPSVFIFPPSDEQLKSGTASVVCLLNNFYPREAKVQWKVDNALQSGNSQESVTEQDSKDSTYSLSSTLTLSKADYEKHKVYACEVTHQGLSSPVTKSFNRGEC
notes: Wild-type SIRPαV2D1 linked to N-terminus of each heavy chain of HuCD40-C1H1-V2 (human IgG2)
As for B1, the EC50 stood at 0.689 nM in experiment [1] and 1.19 nM in experiment [5]. The Kd turned out to be 0.729 nM in experiment [2] and 6.31 nM in experiment [3]. Moreover, the koff in experiment [2] is 0.00184 s⁻¹; in experiment [3], 0.00686 s⁻¹. Also, the results for the association rate constant (kon) in experiment [2] and in experiment [3] were 2.53e+06 M⁻¹ s⁻¹ and 1.09e+06 M⁻¹ s⁻¹, respectively. In addition, the figures for the IC50 in experiment [4] and in experiment [6] were approximately 2.37 nM and 76.8 nM, respectively.

B2: HuCD40-C1H1-V2 (antibody, human IgG2, kappa, V domains shown)
VH: EVQLVESGGGLVKPGGSLRLSCAASGFTFSNYGISWVRQAPGKGLEWVSSISSGGDNTYYPDNVKGRFTISRDNAKNSLYLQMNSLRAEDTAVYYCARAGEKAMDYWGQGTLVTVSS
VL: EIVLTQSPATLSLSPGERATLSCRASQTINNNLHWYQQKPGQAPRLLIKYASQSISGIPARFSGSGSGTDFTLTISSLEPEDFAVYFCQQFSSWPLTFGGGTKVEIKR
notes: Humanized anti-CD40 IgG with human IgG2 heavy chain constant region; also called anti-CD40 antibody HuCD40-C1H1-V2
As to B2, the binding result in experiment [7] is recorded as “no binding (tested: 100 nM)”. Moreover, in experiment [2], the Kd was 1.05 nM, the koff was determined as 0.00169 s⁻¹ and the kon was 1.62e+06 M⁻¹ s⁻¹. The same molecule displayed an IC50 in experiment [4] of 1.01 nM. The same molecule registered an EC50 in experiment [5] of 1.06 nM.
